# Experimental data reported in patent publication US20250361308A1 (NEUROGENE, published 2025).
# Residue numbers refer to the chain shown, from its start.
# T1: Human IL-2 R beta/CD122 Protein, Fc Tag (ILB-H5253) (human, UniProt P14784 27-239)
# T1 construct: Bought protein, captured on anti-human Fc sensors; also called huIL2Rβ; IL-2Rβ; not shown: Fc tag of the bought reagent
# T1 sequence (looked up): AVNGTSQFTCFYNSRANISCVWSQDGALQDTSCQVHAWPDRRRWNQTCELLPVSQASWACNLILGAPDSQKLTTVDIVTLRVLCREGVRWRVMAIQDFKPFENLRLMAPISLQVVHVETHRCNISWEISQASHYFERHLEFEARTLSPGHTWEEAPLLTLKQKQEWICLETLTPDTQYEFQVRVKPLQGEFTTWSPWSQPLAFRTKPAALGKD
# T2: human CD122 and CD132 expressed on a HEK293 cell line (human, UniProt P14784 27-551; P31785 23-369)
# T2 construct: whole, on cells; also called IL-2RBG; IL-2Rβγ on cells
# T2 sequence (looked up) 1: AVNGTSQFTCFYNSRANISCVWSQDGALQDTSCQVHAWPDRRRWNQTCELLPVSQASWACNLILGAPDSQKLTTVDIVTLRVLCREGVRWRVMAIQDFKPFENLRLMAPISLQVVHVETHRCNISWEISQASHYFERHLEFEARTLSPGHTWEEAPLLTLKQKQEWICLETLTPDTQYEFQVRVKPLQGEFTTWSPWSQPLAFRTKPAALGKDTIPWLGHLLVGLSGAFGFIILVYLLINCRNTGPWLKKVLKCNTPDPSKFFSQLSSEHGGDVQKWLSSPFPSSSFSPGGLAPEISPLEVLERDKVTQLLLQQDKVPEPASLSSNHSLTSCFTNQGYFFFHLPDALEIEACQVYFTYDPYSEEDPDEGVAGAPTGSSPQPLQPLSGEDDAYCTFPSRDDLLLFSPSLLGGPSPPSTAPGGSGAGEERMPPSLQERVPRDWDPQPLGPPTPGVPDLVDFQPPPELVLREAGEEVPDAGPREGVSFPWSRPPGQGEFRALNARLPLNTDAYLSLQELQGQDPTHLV
# T2 sequence (looked up) 2: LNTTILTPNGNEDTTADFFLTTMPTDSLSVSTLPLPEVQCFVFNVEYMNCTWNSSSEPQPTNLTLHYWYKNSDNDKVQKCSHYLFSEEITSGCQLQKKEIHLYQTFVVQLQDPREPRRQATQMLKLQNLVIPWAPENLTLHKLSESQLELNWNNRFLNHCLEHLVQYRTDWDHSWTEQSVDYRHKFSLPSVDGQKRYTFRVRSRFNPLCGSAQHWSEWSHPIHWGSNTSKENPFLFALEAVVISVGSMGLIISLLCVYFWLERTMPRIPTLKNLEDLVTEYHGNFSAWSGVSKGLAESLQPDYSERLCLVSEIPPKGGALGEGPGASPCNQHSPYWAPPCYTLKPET
# T3: huIL2Rβγ: Human IL-2 R gamma/CD132 Protein, Fc Tag (ILG-H5256) with Human IL-2 R beta/CD122 Protein, His Tag … (human, UniProt P31785 23-254; P14784 27-239)
# T3 construct: IL-2Rγ-Fc sat on the sensor; IL-2Rβ-His was in solution at a concentration equimolar to or greater than the analyte; also called IL-2RBG; not shown: Fc tag of the bought reagent; His tag of the bought reagent
# T3 sequence (looked up) 1: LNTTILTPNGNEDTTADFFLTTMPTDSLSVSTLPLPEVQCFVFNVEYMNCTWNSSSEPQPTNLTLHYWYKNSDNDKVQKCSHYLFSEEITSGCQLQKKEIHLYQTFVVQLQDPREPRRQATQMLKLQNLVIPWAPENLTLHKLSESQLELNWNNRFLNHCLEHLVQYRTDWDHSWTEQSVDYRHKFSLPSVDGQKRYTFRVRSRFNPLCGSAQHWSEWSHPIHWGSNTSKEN
# T3 sequence (looked up) 2: T1 sequence (looked up)
# B1: Neo-2/15_D15A (designed binder)
# chain: PKKKIQLHAEHALYAALMILNIVKTNSPPAEEKLEDYAFNFELILEEIARLFESGDQKDEAEKAKRMKEWMKRIKTTASEDEQEEMANAIITILQSWIFS
# B2: Neo-2/15_Q95A (designed binder)
# chain: B1 chain with A15D, Q95A
# B3: Neo-2/15_I44A (designed binder)
# chain: B1 chain with A15D, I44A
# B4: Neo-2/15_N40A (designed binder)
# chain: B1 chain with A15D, N40A
# B5: C terminal anti-CD25 full-length Ab fusion with Neo-2/15_D15S_Q95E (TRA comprising SEQ ID NO: 69 and 70) (other)
# heavy: QVQLVQSGAEVKKPGSSVKVSCKASGYTFTSYRMHWVRQAPGQGLEWIGYINPSTGYTEYNQKFKDKATITADESTNTAYMELSSLRSEDTAVYYCARGGGVFDYWGQGTLVTVSSASTKGPSVFPLAPSSKSTSGGTAALGCLVKDYFPEPVTVSWNSGALTSGVHTFPAVLQSSGLYSLSSVVTVPSSSLGTQTYICNVNHKPSNTKVDKKVEPKSCDKTHTCPPCPAPEAAGAPSVFLFPPKPKDTLMISRTPEVTCVVVDVSHEDPEVKFNWYVDGVEVHNAKTKPREEQYNSTYRVVSVLTVLHQDWLNGKEYKCKVSNKALPAPIEKTISKAKGQPREPQVYTLPPSREEMTKNQVSLTCLVKGFYPSDIAVEWESNGQPENNYKTTPPVLDSDGSFFLYSKLTVDKSRWQQGNVFSCSVMHEALHNHYTQKSLSLSPGKGGGGSGGGGSGGGGSPKKKIQLHAEHALYSALMILNIVKTNSPPAEEKLEDYAFNFELILEEIARLFESGDQKDEAEKAKRMKEWMKRIKTTASEDEQEEMANAIITILESWIFS
# light: DIQMTQSPSTLSASVGDRVTITCSASSSISYMHWYQQKPGKAPKLLIYTTSNLASGVPARFSGSGSGTEFTLTISSLQPDDFATYYCHQRSTYPLTFGQGTKVEVKRTVAAPSVFIFPPSDEQLKSGTASVVCLLNNFYPREAKVQWKVDNALQSGNSQESVTEQDSKDSTYSLSSTLTLSKADYEKHKVYACEVTHQGLSSPVTKSFNRGEC
# notes: also called distal fused TRA
# B6: N terminal anti-CD25 full-length Ab fusion with Neo-2/15_D15S_Q95E (other)
# heavy: GSPKKKIQLHAEHALYSALMILNIVKTNSPPAEEKLEDYAFNFELILEEIARLFESGDQKDEAEKAKRMKEWMKRIKTTASEDEQEEMANAIITILESWIFSGGGGSGGGGSGGGGSQVQLVQSGAEVKKPGSSVKVSCKASGYTFTSYRMHWVRQAPGQGLEWIGYINPSTGYTEYNQKFKDKATITADESTNTAYMELSSLRSEDTAVYYCARGGGVFDYWGQGTLVTVSSASTKGPSVFPLAPSSKSTSGGTAALGCLVKDYFPEPVTVSWNSGALTSGVHTFPAVLQSSGLYSLSSVVTVPSSSLGTQTYICNVNHKPSNTKVDKKVEPKSCDKTHTCPPCPAPEAAGAPSVFLFPPKPKDTLMISRTPEVTCVVVDVSHEDPEVKFNWYVDGVEVHNAKTKPREEQYNSTYRVVSVLTVLHQDWLNGKEYKCKVSNKALPAPIEKTISKAKGQPREPQVYTLPPSREEMTKNQVSLTCLVKGFYPSDIAVEWESNGQPENNYKTTPPVLDSDGSFFLYSKLTVDKSRWQQGNVFSCSVMHEALHNHYTQKSLSLSPGK
# light: B5 light
# B7: N terminal anti-CD25 full-length Ab fusion with Neo-2/15_N40S_I44S_Q95E (TRA comprising SEQ ID NO: 74 and 70) (other)
# heavy: B6 heavy with S17D, N42S, I46S
# light: B5 light
# notes: also called proximal fused TRA
# B8: Neo-2/15_H8A (designed binder)
# chain: B1 chain with H8A, A15D
# B9: Neo-2/15_H11A (designed binder)
# chain: B1 chain with H11A, A15D
# B10: Neo-2/15_Y14A (designed binder)
# chain: B1 chain with Y14A, A15D
# Target: T1, Human IL-2 R beta/CD122 Protein, Fc Tag …
# Assay: Octet BLI; IL-2Rβ-Fc on anti-human Fc sensors, Neo-2/15 variant as analyte, 1:1 steady-state model
# Method: (§1) Binding data was collected in the Octet RED96 instrument and processed using the integrated Octet software. […] Anti-Human Fc Capture (AHC) sensors were equilibrated for 90s in 1× Cytiva HBS-EP+ Buffer 10 binding buffer. Sensors were loaded with receptor by mixing with wells containing 0.5 ug/ml aforementioned receptors until a threshold response reached 1.0 nm. Sensors were then baselined in binding buffer for 90s. After baseline measurement, the association kinetics (kon) were monitored by dipping the biosensors in wells containing analyte for 400s. […] Dissociation kinetics (koff) were monitored by dipping the biosensors in separate wells of binding buffer for 800s. The dissociation constant (Kd) was calculated using a 1:1 steady-state binding model with the Octet software.
row,Kd [nM],Binder
1,140,B1
2,3,B2
3,84,B3
4,60,B4

# Target: T2, human CD122 and CD132 expressed on a …
# Assay: flow cytometry saturation binding on HEK293 cells expressing human CD122 and CD132; apparent KD
# Method: Saturation binding studies were done using a HEK293 cell line expressing human CD122 and CD132. […] Cells were incubated for 30 minutes on ice, then pelleted and washed twice with cold PBS. […] After a 30-minute incubation on ice, the cells were pelleted and washed twice in cold PBS. […] The apparent dissociation constant (KD) was calculated using GraphPad Prism (GraphPad, San Diego, CA).
row,Kd [nM],Binder
1,131,B5
2,82,B6
3,131,B7

# Target: T3, huIL2Rβγ: Human IL-2 R gamma/CD132 …
# Assay: Octet BLI; IL-2Rγ-Fc on anti-human Fc sensors with IL-2Rβ-His in solution, 1:1 steady-state model
# Method: as §1
row,Kd [nM],Binder
1,230,B1
2,190,B2
3,58,B3
4,44,B4

# Target: T3, huIL2Rβγ: Human IL-2 R gamma/CD132 …
# Assay: as above
# Remark: another data set of the same source
# Method: as §1
row,Kd [nM],Binder
1,11,B8
2,15,B9
3,10 to 20,B10

# Target: T1, Human IL-2 R beta/CD122 Protein, Fc Tag …
# Assay: Octet BLI; IL-2Rβ-Fc on anti-human Fc sensors, Neo-2/15 variant as analyte, 1:1 steady-state model
# Remark: another data set of the same source
# Method: as §1
row,Kd [nM],Binder
1,1.4,B8
2,3.3,B9
3,0.7,B10
